According to patent US20240270846A1 (published 2024):
Where a chain is given by its changes, count along the chain named. Names and notes keep the numbering of the source.

B1: GLS3000 V27cS (Kabat) L chain altered form, one-arm antibody with CE115HA000 (antibody, human IgG1, kappa, L234A L235A, N297A, name in Kabat numbering)
heavy: QVQLVESGGGVVQPGRSLRLSCAASGFTFSNAWMHWVRQAPGKGLEWVAQIKAKSNNYATYYAESVKGRFTISRDDSKNSLYLQMNSLKTEDTAVYYCRYVHYGAYYGVDAWGQGTTVTVSSASTKGPSVFPLAPSSKSTSGGTAALGCLVKDYFPEPVTVSWNSGALTSGVHTFPAVLQSSGLYSLSSVVTVPSSSLGTQTYICNVNHKPSNTKVDKKVEPKSCDKTHTCPPCPAPEAAGGPSVFLFPPKPKDTLMISRTPEVTCVVVDVSHEDPEVKFNWYVDGVEVHNAKTKPREEQYASTYRVVSVLTVLHQDWLNGKEYKCKVSNKALPAPIEKTISKAKGQPREPQVYTLPPSRCELTKNQVSLSCAVKGFYPSDIAVEWESNGQPENNYKTTPPVLDSDGSFFLVSKLTVDKSRWQQGNVFSCSVMHEALHNHYTQKSLSLSPDYKDDDDK
chain: EPKSSDKTHTCPPCPAPELLGGPSVFLFPPKPKDTLMISRTPEVTCVVVDVSHEDPEVKFNWYVDGVEVHNAKTKPREEQYNSTYRVVSVLTVLHQDWLNGKEYKCKVSNKALPAPIEKTISKAKGQPREPQVCTLPPSRDELTKNQVSLWCLVKGFYPSDIAVEWESNGQPENNYKTTPPVLDSDGSFFLYSKLTVDKSRWQQGNVFSCSVMHEALHNRYTQKSLSLSP
light: DIVMTQSPLSLPVTPGEPASISCRSSQSLSHSNRNTYLHWYQQKPGQAPRLLIYKVSNRFSGVPDRFSGSGSGTDFTLKISRVEAEDVGVYYCGQGTQVPYTFGQGTKLEIKRTVAAPSVFIFPPSDEQLKSGTASVVCLLNNFYPREAKVQWKVDNALQSGNSQESVTEQDSKDSTYSLSSTLTLSKADYEKHKVYACEVTHQGLSSPVTKSFNRGEC
notes: one-arm antibody
B2: GLS3000 V27cY (Kabat) L chain altered form, one-arm antibody with CE115HA000 (antibody, human IgG1, kappa, L234A L235A, N297A, name in Kabat numbering)
heavy: B1 heavy
chain: B1 chain
light: B1 light with S30Y
notes: one-arm antibody
B3: GLS3000 Y32A (Kabat) L chain altered form, one-arm antibody with CE115HA000 (antibody, human IgG1, kappa, L234A L235A, N297A, name in Kabat numbering)
heavy: B1 heavy
chain: B1 chain
light: B1 light with S30V, Y37A
notes: one-arm antibody
B4: CE115HA000 H35A one-arm antibody (antibody, human IgG1, kappa, L234A L235A, N297A, name in Kabat numbering)
heavy: B1 heavy with H35A
chain: B1 chain
light: B1 light with S30V
notes: one-arm antibody
B5: CE115HA000 G65D one-arm antibody (antibody, human IgG1, kappa, L234A L235A, N297A, name in Kabat numbering)
heavy: B1 heavy with G68D
chain: B1 chain
light: B1 light with S30V
notes: one-arm antibody
B6: CE115HA000 A52aY one-arm antibody (antibody, human IgG1, kappa, L234A L235A, N297A, name in Kabat numbering)
heavy: B1 heavy with A53Y
chain: B1 chain
light: B1 light with S30V
notes: one-arm antibody
B7: CE115HA000 D73G one-arm antibody (antibody, human IgG1, kappa, L234A L235A, N297A, name in Kabat numbering)
heavy: B1 heavy with D76G
chain: B1 chain
light: B1 light with S30V
notes: one-arm antibody
B8: CE115HA000 G65E one-arm antibody (antibody, human IgG1, kappa, L234A L235A, N297A, name in Kabat numbering)
heavy: B1 heavy with G68E
chain: B1 chain
light: B1 light with S30V
notes: one-arm antibody
B9: CE115HA000 E61D one-arm antibody (antibody, human IgG1, kappa, L234A L235A, N297A, name in Kabat numbering)
heavy: B1 heavy with E64D
chain: B1 chain
light: B1 light with S30V
notes: one-arm antibody
B10: CE115HA000 E61A one-arm antibody (antibody, human IgG1, kappa, L234A L235A, N297A, name in Kabat numbering)
heavy: B1 heavy with E64A
chain: B1 chain
light: B1 light with S30V
notes: one-arm antibody
B11: CE115HA000 H35E one-arm antibody (antibody, human IgG1, kappa, L234A L235A, N297A, name in Kabat numbering)
heavy: B1 heavy with H35E
chain: B1 chain
light: B1 light with S30V
notes: one-arm antibody
B12: CE115HA000 A56K one-arm antibody (antibody, human IgG1, kappa, L234A L235A, N297A, name in Kabat numbering)
heavy: B1 heavy with A59K
chain: B1 chain
light: B1 light with S30V
notes: one-arm antibody
B13: CE115HA000 A52aP one-arm antibody (antibody, human IgG1, kappa, L234A L235A, N297A, name in Kabat numbering)
heavy: B1 heavy with A53P
chain: B1 chain
light: B1 light with S30V
notes: one-arm antibody
B14: CE115HA000 D72A one-arm antibody (antibody, human IgG1, kappa, L234A L235A, N297A, name in Kabat numbering)
heavy: B1 heavy with D75A
chain: B1 chain
light: B1 light with S30V
notes: one-arm antibody
B15: CE115HA000 A32Y one-arm antibody (antibody, human IgG1, kappa, L234A L235A, N297A, name in Kabat numbering)
heavy: B1 heavy with A32Y
chain: B1 chain
light: B1 light with S30V
notes: one-arm antibody
B16: CE115HA000 D73A one-arm antibody (antibody, human IgG1, kappa, L234A L235A, N297A, name in Kabat numbering)
heavy: B1 heavy with D76A
chain: B1 chain
light: B1 light with S30V
notes: one-arm antibody
B17: CE115HA000 D72E one-arm antibody (antibody, human IgG1, kappa, L234A L235A, N297A, name in Kabat numbering)
heavy: B1 heavy with D75E
chain: B1 chain
light: B1 light with S30V
notes: one-arm antibody
B18: CE115HA000 H35I one-arm antibody (antibody, human IgG1, kappa, L234A L235A, N297A, name in Kabat numbering)
heavy: B1 heavy with H35I
chain: B1 chain
light: B1 light with S30V
notes: one-arm antibody
B19: CE115HA000 D73K one-arm antibody (antibody, human IgG1, kappa, L234A L235A, N297A, name in Kabat numbering)
heavy: B1 heavy with D76K
chain: B1 chain
light: B1 light with S30V
notes: one-arm antibody
B20: CE115HA000 A52aV one-arm antibody (antibody, human IgG1, kappa, L234A L235A, N297A, name in Kabat numbering)
heavy: B1 heavy with A53V
chain: B1 chain
light: B1 light with S30V
notes: one-arm antibody
B21: CE115HA000 A56G one-arm antibody (antibody, human IgG1, kappa, L234A L235A, N297A, name in Kabat numbering)
heavy: B1 heavy with A59G
chain: B1 chain
light: B1 light with S30V
notes: one-arm antibody
B22: CE115HA000 F29V one-arm antibody (antibody, human IgG1, kappa, L234A L235A, N297A, name in Kabat numbering)
heavy: B1 heavy with F29V
chain: B1 chain
light: B1 light with S30V
notes: one-arm antibody
B23: CE115HA000 A52aD one-arm antibody (antibody, human IgG1, kappa, L234A L235A, N297A, name in Kabat numbering)
heavy: B1 heavy with A53D
chain: B1 chain
light: B1 light with S30V
notes: one-arm antibody
B24: CE115HA000 A56D one-arm antibody (antibody, human IgG1, kappa, L234A L235A, N297A, name in Kabat numbering)
heavy: B1 heavy with A59D
chain: B1 chain
light: B1 light with S30V
notes: one-arm antibody
B25: CE115HA000 H35D one-arm antibody (antibody, human IgG1, kappa, L234A L235A, N297A, name in Kabat numbering)
heavy: B1 heavy with H35D
chain: B1 chain
light: B1 light with S30V
notes: one-arm antibody
B26: CE115HA000 A60D one-arm antibody (antibody, human IgG1, kappa, L234A L235A, N297A, name in Kabat numbering)
heavy: B1 heavy with A63D
chain: B1 chain
light: B1 light with S30V
notes: one-arm antibody
B27: CE115HA000 A52aS one-arm antibody (antibody, human IgG1, kappa, L234A L235A, N297A, name in Kabat numbering)
heavy: B1 heavy with A53S
chain: B1 chain
light: B1 light with S30V
notes: one-arm antibody
B28: CE115HA000 D73E one-arm antibody (antibody, human IgG1, kappa, L234A L235A, N297A, name in Kabat numbering)
heavy: B1 heavy with D76E
chain: B1 chain
light: B1 light with S30V
notes: one-arm antibody
B29: CE115HA000 H35G one-arm antibody (antibody, human IgG1, kappa, L234A L235A, N297A, name in Kabat numbering)
heavy: B1 heavy with H35G
chain: B1 chain
light: B1 light with S30V
notes: one-arm antibody
B30: CE115HA000 A52aG one-arm antibody (antibody, human IgG1, kappa, L234A L235A, N297A, name in Kabat numbering)
heavy: B1 heavy with A53G
chain: B1 chain
light: B1 light with S30V
notes: one-arm antibody
B31: CE115HA000 A52aE one-arm antibody (antibody, human IgG1, kappa, L234A L235A, N297A, name in Kabat numbering)
heavy: B1 heavy with A53E
chain: B1 chain
light: B1 light with S30V
notes: one-arm antibody
B32: CE115HA000 H35F one-arm antibody (antibody, human IgG1, kappa, L234A L235A, N297A, name in Kabat numbering)
heavy: B1 heavy with H35F
chain: B1 chain
light: B1 light with S30V
notes: one-arm antibody
B33: CE115HA000 A60E one-arm antibody (antibody, human IgG1, kappa, L234A L235A, N297A, name in Kabat numbering)
heavy: B1 heavy with A63E
chain: B1 chain
light: B1 light with S30V
notes: one-arm antibody

biological target: T1, CD3 epsilon homodimer protein (UniProt P07766 23-126); test: SPR Biacore T200, CD3 epsilon homodimer immobilized; vs unaltered GLS3000;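 note: antibody variants flowed as analyte over CD3 epsilon homodimer amine-coupled to a CM4 chip, at 25 °C in HBS-EP+ running buffer, fitted with Biacore T200 Evaluation Software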
T1 construct: construct not described; homodimer as printed; also called CD3 (CD3 epsilon)
T1 sequence (P07766 23-126): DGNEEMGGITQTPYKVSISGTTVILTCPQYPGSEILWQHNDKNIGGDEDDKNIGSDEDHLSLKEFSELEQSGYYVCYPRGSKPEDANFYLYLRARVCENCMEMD

Binder | KD ratio to GLS3000 (Affinity up)
B1 | 3.04
B2 | 1.25
B3 | 66.8

biological target: T2, CD3 epsilon homodimer protein (UniProt P07766 23-126); test: SPR Biacore T200, antibody over immobilised CD3e homodimer;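 note: CD3 epsilon homodimer amine-coupled on a CM4 chip, run at 25 °C in HBS-EP+, Z = bound amount of each single-residue H chain variant over that of the parent antibody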
T2 construct: also called CD3 (CD3 epsilon)
T2 sequence (P07766 23-126): as above

Binder | ratio of amounts bound (Z=Y/X vs CE115HA000)
B4 | 0.17
B5 | 0.76
B6 | 0.31
B7 | 1.07
B8 | 0.78
B9 | 0.91
B10 | 1.09
B11 | 0.19
B12 | 1.35
B13 | 0.15
B14 | 1.41
B15 | 0.33
B16 | 0.83
B17 | 1.05
B18 | 0.12
B19 | 0.87
B20 | 0.52
B21 | 0.61
B22 | 0.36
B23 | 1.34
B24 | 0.51
B25 | 0.2
B26 | 0.99
B27 | 1.05
B28 | 0.73
B29 | 0.22
B30 | 0.81
B31 | 0.57
B32 | 0.21
B33 | 0.94
